In the RNAGym collection of RNA variant scans (doi:10.7554/elife.80360):

B1: Twister Ribozyme (parent)
chain: AACACUGCCAAUGCCGGUCCCAAGCCCGGAUAAAAGUGGAGGGGGCGG

Variants of: B1
Experiment: self-cleavage, relative activity (ratio to wild type); higher = more cleavage; co-transcriptional

| Variant | self-cleavage |
| --- | --- |
| AACACUGCCAAUGCCGGUCCCAAGCCCGGAUAUAAGUGGAGGGGGCCG | 0.439 |
| AACACUGCCAAUGCCGGUCCCAAGCCCGGAUAACCGUGGAGGGGGCGG | 0.694 |
| AACACUGCCAAUGCCGGUCCCAAGCCCGGAUAAACGUGGAGGGGGCCG | 0.574 |
| AACACUGCCAAUGCCGGUCCCAAGCCCGGAUAAUAGUGGGGGGGGCGG | 0.122 |
| AACACUGCCAAUGCCGGUCCCAAGCCCGGAUAAUAGUGGCGGGGGCGG | 0.137 |
| AACACUGCCAAUGCCGGUCCCAAGCCCGGAUAAUAGUGGUGGGGGCGG | 0.141 |
| AACACUGCCAAUGCCGGUCCCAAGCCCGGAUAAACGUGUAGGGGGCGG | 0.144 |
| AACACUGCCAAUGCCGGUCCCAAGCCCGGAUAACAGUGGUGGGGGCGG | 0.0943 |
| AACACUGCCAAUGCCGGUCCCAAGCCCGGAUAACAGUGGCGGGGGCGG | 0.122 |
| AACACUGCCAAUGCCGGUCCCAAGCCCGGAUAAUAGUGCAGGGGGCGG | 0.138 |
| AACACUGCCAAUGCCGGUCCCAAGCCCGGAUAAGAGGGGAGGGGGCGG | 0.314 |
| AACACUGCCAAUGCCGGUCCCAAGCCCGGAUAAGAGCGGAGGGGGCGG | 0.0836 |
| AACACUGCCAAUGCCGGUCCCAAGCCCGGAUAAUAGUGGAGGGUGCGG | 0.771 |
| AACACUGCCAAUGCCGGUCCCAAGCCCGGAUAAGAGUGGAGGGGGCCG | 0.193 |
| AACACUGCCAAUGCCGGUCCCAAGCCCGGAUAAGAGUGGAGGGGGCUG | 0.553 |
| AACACUGCCAAUGCCGGUCCCAAGCCCGGAUAAGAGUGGAGGGGGCGC | 0.791 |
| AACACUGCCAAUGCCGGUCCCAAGCCCGGAUAAGAGUGGAGGGGGCGA | 0.645 |
| AACACUGCCAAUGCCGGUCCCAAGCCCGGAUAAGAGUGGACGGGGCGG | 0.12 |
| AACACUGCCAAUGCCGGUCCCAAGCCCGGAUAAGAGUGGAGGGGGGGG | 0.815 |
| AACACUGCCAAUGCCGGUCCCAAGCCCGGAUAUAAGUGGAGGGGACGG | 0.884 |
| AACACUGCCAAUGCCGGUCCCAAGCCCGGAUAUAAGUGGAGGGGUCGG | 0.843 |
| AACACUGCCAAUGCCGGUCCCAAGCCCGGAUAGAAGUGGAGGGGUCGG | 0.782 |
| AACACUGCCAAUGCCGGUCCCAAGCCCGGAUAUAAGUGGAGGGGGCGU | 0.931 |
| AACACUGCCAAUGCCGGUCCCAAGCCCGGAUAACAGUGGAGGGUGCGG | 0.165 |
| AACACUGCCAAUGCCGGUCCCAAGCCCGGAUAACAGUGGAGGGCGCGG | 0.156 |
| AACACUGCCAAUGCCGGUCCCAAGCCCGGAUAACAGUGGAGGGAGCGG | 0.385 |
| AACACUGCCAAUGCCGGUCCCAAGCCCGGAUAUGAGUGGAGGGGGCGG | 0.76 |

| Variant | self-cleavage |
| --- | --- |
| AACACUGCCAAUGCCGGUCCCAAGCCCGGAUAGAAGCGGAGGGGGCGG | 0.532 |
| AACACUGCCAAUGCCGGUCCCAAGCCCGGAUAGAAGAGGAGGGGGCGG | 0.814 |
| AACACUGCCAAUGCCGGUCCCAAGCCCGGAUAAACGUGGAGGGUGCGG | 0.976 |
| AACACUGCCAAUGCCGGUCCCAAGCCCGGAUAAACGUGGAGGGAGCGG | 0.87 |
| AACACUGCCAAUGCCGGUCCCAAGCCCGGAUAGAAGUGGAGGGGGCUG | 0.927 |
| AACACUGCCAAUGCCGGUCCCAAGCCCGGAUAGAAGUGGAGGGGGCAG | 0.75 |
| AACACUGCCAAUGCCGGUCCCAAGCCCGGAUAACAGUGGAGGGGGCGA | 0.187 |
| AACACUGCCAAUGCCGGUCCCAAGCCCGGAUAAUAGUGGAGGUGGCGG | 0.193 |
| AACACUGCCAAUGCCGGUCCCAAGCCCGGAUAAUAGUGGAGGCGGCGG | 0.186 |
| AACACUGCCAAUGCCGGUCCCAAGCCCGGAUAAACGUGGUGGGGGCGG | 0.142 |
| AACACUGCCAAUGCCGGUCCCAAGCCCGGAUAAACGUGGGGGGGGCGG | 0.18 |
| AACACUGCCAAUGCCGGUCCCAAGCCCGGAUAAGAGUGGAGGUGGCGG | 0.133 |
| AACACUGCCAAUGCCGGUCCCAAGCCCGGAUAAGAGUGGAGGCGGCGG | 0.162 |
| AACACUGCCAAUGCCGGUCCCAAGCCCGGAUAAGAGUGGAGGAGGCGG | 0.136 |
| AACACUGCCAAUGCCGGUCCCAAGCCCGGAUAAACGUGGACGGGGCGG | 0.245 |
| AACACUGCCAAUGCCGGUCCCAAGCCCGGAUAAACGUGGAUGGGGCGG | 0.709 |
| AACACUGCCAAUGCCGGUCCCAAGCCCGGAUAUAAGUGCAGGGGGCGG | 0.0973 |
| AACACUGCCAAUGCCGGUCCCAAGCCCGGAUAUAAGUGUAGGGGGCGG | 0.162 |
| AACACUGCCAAUGCCGGUCCCAAGCCCGGAUAUAAGUGAAGGGGGCGG | 0.512 |
| AACACUGCCAAUGCCGGUCCCAAGCCCGGAUAAUGGUGGAGGGGGCGG | 0.191 |
| AACACUGCCAAUGCCGGUCCCAAGCCCGGAUAAGAGUAGAGGGGGCGG | 0.629 |
| AACACUGCCAAUGCCGGUCCCAAGCCCGGAUAAGAGUCGAGGGGGCGG | 0.632 |
| AACACUGCCAAUGCCGGUCCCAAGCCCGGAUAUAAGUGGAGCGGGCGG | 0.323 |
| AACACUGCCAAUGCCGGUCCCAAGCCCGGAUAUAAGUGGAGUGGGCGG | 0.244 |
| AACACUGCCAAUGCCGGUCCCAAGCCCGGAUAUAAGUGGAGAGGGCGG | 0.283 |
| AACACUGCCAAUGCCGGUCCCAAGCCCGGAUAACAGUGGAGGGGGCCG | 0.177 |
| AACACUGCCAAUGCCGGUCCCAAGCCCGGAUAAUAGUGGAGGGGGCGU | 0.811 |
